# Results reported in US20180355034A1 (published 2018).
# Tests used:
# [1] = molecular target: Recombinant human CD16aV (V polymorphism at position 158 of CD16) (human, UniProt P08637 17-208); experiment: SPR; produced in HEK
# [2] = molecular target: Recombinant human FcRn (FcRn alpha and beta2-microglobulin) (human, UniProt P55899 24-290; P61769 21-119); experiment: SPR; produced in HEK
# Chain of Recombinant human CD16aV (V polymorphism at position 158 of CD16) (P08637 17-208 F176V): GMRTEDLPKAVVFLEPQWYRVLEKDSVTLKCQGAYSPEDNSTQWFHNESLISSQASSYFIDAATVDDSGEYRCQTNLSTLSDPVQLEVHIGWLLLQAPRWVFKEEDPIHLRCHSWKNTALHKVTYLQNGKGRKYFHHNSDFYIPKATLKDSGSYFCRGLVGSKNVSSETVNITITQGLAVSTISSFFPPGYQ
Kd [1] [nM],Kd [2] [nM],Binder
2820,30.2,T5A-74J (E258I/N315D/A330V/N361D/A378V/N434Y) Fc fragment (other) DKTHTCPPCPAPELLGGPSVFLFPPKPKDTLMISRTPIVTCVVVDVSHEDPEVKFNWYVDGVEVHNAKTKPREEQYNSTYRVVSVLTVLHQDWLDGKEYKCKVSNKALPVPIEKTISKAKGQPREPQVYTLPPSRDELTKDQVSLTCLVKGFYPSDIVVEWESNGQPENNYKTTPPVLDSDGSFFLYSKLTVDKSRWQQGNVFSCSVMHEALHYHYTQKSLSLSPGK
3180,16.6,T5A-74K (K290Y/N315D/A330V/N361D/A378V/N434Y) Fc fragment (other) DKTHTCPPCPAPELLGGPSVFLFPPKPKDTLMISRTPEVTCVVVDVSHEDPEVKFNWYVDGVEVHNAKTYPREEQYNSTYRVVSVLTVLHQDWLDGKEYKCKVSNKALPVPIEKTISKAKGQPREPQVYTLPPSRDELTKDQVSLTCLVKGFYPSDIVVEWESNGQPENNYKTTPPVLDSDGSFFLYSKLTVDKSRWQQGNVFSCSVMHEALHYHYTQKSLSLSPGK
308,27.3,T5A-74M (Y296W/N315D/A330V/N361D/A378V/N434Y) Fc fragment (other) DKTHTCPPCPAPELLGGPSVFLFPPKPKDTLMISRTPEVTCVVVDVSHEDPEVKFNWYVDGVEVHNAKTKPREEQWNSTYRVVSVLTVLHQDWLDGKEYKCKVSNKALPVPIEKTISKAKGQPREPQVYTLPPSRDELTKDQVSLTCLVKGFYPSDIVVEWESNGQPENNYKTTPPVLDSDGSFFLYSKLTVDKSRWQQGNVFSCSVMHEALHYHYTQKSLSLSPGK
4400,37.9,T5A-74L (E294A/N315D/A330V/N361D/A378V/N434Y) Fc fragment (other) DKTHTCPPCPAPELLGGPSVFLFPPKPKDTLMISRTPEVTCVVVDVSHEDPEVKFNWYVDGVEVHNAKTKPREAQYNSTYRVVSVLTVLHQDWLDGKEYKCKVSNKALPVPIEKTISKAKGQPREPQVYTLPPSRDELTKDQVSLTCLVKGFYPSDIVVEWESNGQPENNYKTTPPVLDSDGSFFLYSKLTVDKSRWQQGNVFSCSVMHEALHYHYTQKSLSLSPGK

# More lines, now with the values behind:
Binder,Kd [1] [nM],Kd [2] [nM]
A3A-184A (K334N/P352S/A378V/V397M) Fc fragment (other) DKTHTCPPCPAPELLGGPSVFLFPPKPKDTLMISRTPEVTCVVVDVSHEDPEVKFNWYVDGVEVHNAKTKPREEQYNSTYRVVSVLTVLHQDWLNGKEYKCKVSNKALPAPIENTISKAKGQPREPQVYTLSPSRDELTKNQVSLTCLVKGFYPSDIVVEWESNGQPENNYKTTPPMLDSDGSFFLYSKLTVDKSRWQQGNVFSCSVMHEALHNHYTQKSLSLSPGK,228,11.7
J3B-118A (A378V/P396L/N421T) Fc fragment (other) DKTHTCPPCPAPELLGGPSVFLFPPKPKDTLMISRTPEVTCVVVDVSHEDPEVKFNWYVDGVEVHNAKTKPREEQYNSTYRVVSVLTVLHQDWLNGKEYKCKVSNKALPAPIEKTISKAKGQPREPQVYTLPPSRDELTKNQVSLTCLVKGFYPSDIVVEWESNGQPENNYKTTPLVLDSDGSFFLYSKLTVDKSRWQQGTVFSCSVMHEALHNHYTQKSLSLSPGK,1840,
A3A-105D (G316D/K326E/A378V) Fc fragment (other) DKTHTCPPCPAPELLGGPSVFLFPPKPKDTLMISRTPEVTCVVVDVSHEDPEVKFNWYVDGVEVHNAKTKPREEQYNSTYRVVSVLTVLHQDWLNDKEYKCKVSNEALPAPIEKTISKAKGQPREPQVYTLPPSRDELTKNQVSLTCLVKGFYPSDIVVEWESNGQPENNYKTTPPVLDSDGSFFLYSKLTVDKSRWQQGNVFSCSVMHEALHNHYTQKSLSLSPGK,1210,231
T5A-74I (T260A/N315D/A330V/N361D/A378V/N434Y) Fc fragment (other) DKTHTCPPCPAPELLGGPSVFLFPPKPKDTLMISRTPEVACVVVDVSHEDPEVKFNWYVDGVEVHNAKTKPREEQYNSTYRVVSVLTVLHQDWLDGKEYKCKVSNKALPVPIEKTISKAKGQPREPQVYTLPPSRDELTKDQVSLTCLVKGFYPSDIVVEWESNGQPENNYKTTPPVLDSDGSFFLYSKLTVDKSRWQQGNVFSCSVMHEALHYHYTQKSLSLSPGK,3510,32.5
